Here are results for 2 substances from article PMC3526285.

In this data set the test system is TRMT10C (native, untagged, in complex);SDR5C1 (Homo sapiens;Homo sapiens). The experiment in a line: EMSA. The following applies: concentration refers to TRMT10C content; EMSA: 1 nM 5'-labelled pre-tRNA, 10 nM-1.2 uM protein, methylation/processing buffer (composition not in material) + 100 mM sucrose, 30 min at room ….

A word on the Kd: it is the constant that tells how readily two partners part at equilibrium. As to (mt)pre-tRNAHis, the Kd amounted to 143 nM.
Next, (mt)pre-tRNAIle: 88 nM.
